For 18 molecules, Kd results are on record in patent publication US20220306762A1 (CRYSTAL BIOSCIENCE, published 2022).

The target in test [1] is T1, His-tagged human CD38 (ACRO Biosystems CD8-H5224) (human, UniProt P28907 43-300).
T1 construct: bought protein; used for ELISA coating and as SPR analyte; not shown: His tag
Kind of test: SPR, IgG. For orientation: Surface plasmon resonance follows binding to a sensor surface in real time, without labels.

For test [2], the target named is T2, His-tagged cynomolgus monkey CD38 (ACRO Biosystems, CD8-05223 [sic]) (cynomolgus monkey, UniProt Q5VAN0 43-301).
T2 construct: bought protein; used for ELISA coating and as SPR analyte; not shown: His tag
Kind of test: SPR, IgG.

In test [3] the target is T3, His-tagged mouse CD38 (ACRO Biosystems CD8-M5223) (mouse, UniProt P56528 45-304).
T3 construct: bought protein; used for ELISA coating and as SPR analyte; also called Murine; not shown: His tag
T3 sequence (looked up): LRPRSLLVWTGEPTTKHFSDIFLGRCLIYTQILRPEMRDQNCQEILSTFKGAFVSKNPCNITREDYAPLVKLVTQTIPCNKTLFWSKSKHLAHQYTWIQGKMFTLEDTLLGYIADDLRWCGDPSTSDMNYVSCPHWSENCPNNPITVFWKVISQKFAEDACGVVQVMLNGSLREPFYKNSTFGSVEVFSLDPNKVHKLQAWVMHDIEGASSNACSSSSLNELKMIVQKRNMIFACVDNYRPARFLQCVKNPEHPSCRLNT
Kind of test: SPR (second run), His-tagged CD38.

In test [4] the target is T1, His-tagged human CD38 (ACRO Biosystems …). As to the kind of experiment: SPR (second run), His-tagged CD38.
The target of test [5] is T2, His-tagged cynomolgus monkey CD38 (ACRO …). Kind of test: SPR (second run), His-tagged CD38.

B1: 40769p2.2.C11 IgG (antibody, V domains shown)
VH: EVQLLESGGGLVQPGGSLRLSCAASGFTFSDYEMNWVRQAPGKGLEWVSSISITGSWTYYADSVKGRFTISRDNSKNTLYLQMNNLRAEDTAVYYCANYKSYYGMDVWGHGTTVTVSS
VL: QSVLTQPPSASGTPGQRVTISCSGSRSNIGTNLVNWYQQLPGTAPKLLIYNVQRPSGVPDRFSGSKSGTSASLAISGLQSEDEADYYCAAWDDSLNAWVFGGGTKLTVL
notes: IgG
As to B1, the Kd in test [1] worked out at 0.67 nM; in test [2] it was 2.18 nM.

B2: 40769p2.2.A6 IgG (antibody, V domains shown)
VH: EVQLLESGGGLVQPGGSLRLSCAASGFTFSDYEMNWVRQAPGKGLEWVSAISITGSWTYYADSVKGRFTISRDNSENTLYLQMNNLRAEDTAVYYCANYKSYYGMDVWGRGTTVTVSS
VL: QSVLTQPPSASGTPGQRVTISCSGSRSNIRNNLVNWYQQLPGTAPKLLIYNTQRPSGVPDRFSGSKSGTSASLAISGLQSEDEADYYCASWDASLNAWVFGGGTKLTVL
notes: IgG
Regarding B2, the results for the Kd in test [1] and in test [2] were 21.9 nM and 22.9 nM, respectively.

B3: 40769p2.1.E8 IgG (antibody, V domains shown)
VH: EVQLLESGGGLVQPGGSLRLSCTGFGFTFTDARMSWVRQAPGKGLEWVADISSYGDNTYYADSVKGRFTISRDNSANTLYVQMNSLRAEDTAVYYCAKRMEREVMTIKLDYHAMDVWGQGTTVTVSS
VL: QSVLTQTPSVSGTPGQRVTISCSGVFNIRNYVSWYQQLPGTAPKLLIFKDDQRPSGVPDRFSGSRSGTSASLAISGLQSEDEADYYCAAWDIFLNVWVFGGGTKLTVL
notes: IgG
Take B3: the results for the Kd in test [1] and in test [2] were 0.14 nM and 0.35 nM, respectively.

B4: 40596p2.1.B8 IgG (antibody, V domains shown)
VH: EVQLLESGGGLGQPGGSLRLSCAASGFDFSSYAMSWVRQAPGKGLEWVAGGGWSGSFIYYADSVKGRFTISRDNSKNTLYLQMNSLRAEDTAVYYCTRNPGFGEMDVWGQGTTVTVSS
VL: EIVLTQSPGTLSLSPGERATLSCRASQTVGSNLAWYQQKPGQAPRLLIHGANNRATDIPDRFSGSGSGTEFTLTVSSLQSEDFAIYYCQQYNSWPPLTFGGGTKVEIK
notes: IgG
Turning to B4, the Kd was 18.5 nM in test [1] and 159 nM in test [2].

B5: 40769p2.1.E5 IgG (antibody, V domains shown)
VH: EVQLLESGGGLVQPGGSLRLSCTASAHIFKYNWMSWVRQAPGKGLEWVSSINSDGTITYYTDSVKGRFTISRDNSKNTLYLQMNSLRAEDTAVYYCAKDNWNDYAIDVWGQGTTVTVSS
VL: QSVLTQPPSASGTPGQRVTISCSGSRSDIRNNYVSWYQQLPGTAPKLLIYSNGQRPSGVPDRFSGSKSGTSASLAISGLQSEDEADYYCAIWDDSLNAWVFGGGTKLTVL
notes: IgG
Turning to B5, the Kd in test [1] worked out at 1.18 nM; in test [2] it was 467 nM.

B6: 40769p2.2.H4 IgG (antibody, V domains shown)
VH: EVQLLESGGGLVQPGGSLRLSCAASGFDFSSYWMNWVRQAPGKGLEWVSTISSGGSIIYYADSVKGQFTISRDNSKNTLYLQMNSLRAEDTAVYYCAKDNWNDYYGMDVWGQGTTVTVSS
VL: QSVPTQPPSASGTPGQRVTISCSGSSSNIRDNYVYWYQQVPGTAPKLLIYKDDQRPSGVPDRFSGSKSGTSASLAISGLQSEDEADYYCATWDGSLNARVFGGGTKLTVL
notes: IgG
As to B6, the values for the dissociation constant (Kd) in test [1] and in test [2] were 57 nM and 167 nM, respectively.

B7: 40769p2.1.C1 IgG (antibody, V domains shown)
VH: EVQLLESGGGLVQPGGSLRLSCAASGFSFSDYWMNWVRQAPGKGLEWVSTISSGGNMIYYADSVKGRFTISRDNSKNTLYLRMNSLRAEDTAVYYCAKDNWNDYYGMDVWGQGTTVTVSS
VL: QSVLTQPPSASGTPGQRVTISCSGSSSNIRDNYVYWYQQVPGTAPKLLIYKDDQRPSGVPDRFSGSKSGSSASLAISGLQSEDEADYYCATWDGSLNARVFGGGTKLTVL
notes: IgG
In the case of B7, the Kd in test [1] amounted to 60.7 nM; in test [2], 29.3 nM.

B8: 40769p2.2.H8 IgG (antibody, V domains shown)
VH: EVQLLESGGGLVQSGGSLRLSCAASGFNFNSHDMNWVRQAPGKGLEWVSSISADRGRTYYADSVKGRFTIFRDDSKKILYLQMNSLRAEDTAVYYCTKYYNMDVWGQGTTVTVSS
VL: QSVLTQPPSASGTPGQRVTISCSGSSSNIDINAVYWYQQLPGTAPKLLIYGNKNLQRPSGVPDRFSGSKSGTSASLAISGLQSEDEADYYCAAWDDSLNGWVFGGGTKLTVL
notes: IgG
B8: the Kd in test [1] amounted to 65.7 nM; in test [2], 148 nM.

B9: 40596p1.F6 (scFv, V domains shown)
VH: EVQLLESGGGLVQPGGSLRLSCAASGFDFSKNAMSWVRQAPGKGLEYVAGSGWSGSFIFYADSVKGRFTVSRDNSENTLYLQMSSLRAEDTAVYYCAKNPGFGEMDVWGQGTTVTVSS
VL: EIVLTQSPGSLFLSPGERATLTCRASQTIGSNLAWYQQKFGQAPRLLIYGASTRAADIPDRFSGSGSGTEFTLTISSLQSEDFAVYYCQQYNSWPPLTFGGGTKVEIK
In the case of B9, the Kd in test [3] came out at 27.2 nM; in test [4] it was 80.4 nM; in test [5] it was 281 nM.

B10: 40596p1.E4 (scFv, V domains shown)
VH: EVQLLESGGGLVQPGGSLRLSCAASGFDFSGSAMSWVRQAPGKGLEYVAGLGWSGSFIYYADSVKGRSTISRDNSKNTLYLQLNSLRAEDTAVYYCARNPGFGEMDVWGQGTTVTVSS
VL: EIVLTQSPGSLSLSPGERATLSCRASQTVGSNLAWYQQKPGQAPRLLIYGASTRATDIPDRFSGSGSGTEFTLTISSLQSEDFAVYYCQQYNSWPPLTFGGGTKVEIK
Regarding B10, the Kd in test [3] was 930 nM; in test [4] it was 26.4 nM; in test [5] it was 147 nM.

B11: 40596p1.D2 (scFv, V domains shown)
VH: EVQLLESGGGLVQPGGSLRLSCAASGFDFSKNAMSWVRQAPGKGLEYVAGSGWSGSFIFYADSVKGRSTVSRDNSENTLYLQMSSLRAEDTAVYYCAKNPGFGEMDVWGQGTTVTVSS
VL: ELVLTQSPGSLFLSPGERATLTCRASQTIGSNLAWYQQKFGQAPRLLIYGASTRAADIPDRFSGSGSGTEFTLTISSLQSEDFAVYYCQQYNSWPPLTFGGGTKVEIK
As to B11, the Kd in test [3] came to 45.2 nM; in test [4], 54.7 nM; in test [5], 172 nM.

B12: 40596p1.A5 (scFv, V domains shown)
VH: EVQLLESGGGLVQPGGSLRLSCAASGFDFSNNAMSWVRQAPGKGLEYVAGSGWSGSFIFYADSVKGRFTVSRDNSENTLYLQMNSLRAEDTAVYYCAKNPGFGEMDVWGQGTTVTVSS
VL: EIVLTQSPGSLSLSPGERATLRCRASQSIGSNLAWYQQKPGQAPSLLIYGASTRAADIPDRFSGSGSGTEFTLTITSLQSEDFAVYYCQQYNSWPPLTFGGGTKVEIK
With B12, the Kd worked out at 23.7 nM in test [3], 56.9 nM in test [4] and 203 nM in test [5].

B13: 40617p1.2.A1 (scFv, V domains shown)
VH: EVQLLESGGGLVQPGGSLRLSCAASGFTFSSYWMTWVRQAPGKGLEWVSAISSYGGQYTYYADSVKGRFTISRDNSKDTLYLHMDSLRAEDTAVYYCAKDWDDGMDVWGQGTTVTVSS
VL: EIVMTQSPAVLSVSPGERATLSCRASQSVNIKLAWYQQKPGQAPRLLIYGASTRAAGIPDRFSGSGSGTDFTLTISSLQSDDFAVYYCQQYYDLPPYSFGGGTKVEIK
For B13, the values for the Kd in test [3], in test [4] and in test [5] were 141 nM, 75.3 nM and 102 nM, respectively.

B14: 40769p1.2.B4 (scFv, V domains shown)
VH: EVQLLESGGDLVQPGGSLRLSCGASGFTFSDHYMSWVRQAPGKGLEWVADISARGSNTWYADSVKGRFTISRDNSENTLYLQMNSLRAEDTAVYYCAKNWNYNYGMDVWGHGTTVTVSS
VL: QSVLTQAPSASGTPGQRVTISCSGSSIQNNYVSWYQQLPGTAPKLLIYRNFERPSGVPDRFSASKSGTSASLAISGLQSEDEADYYCASWDDSLNWVFGGGTKLTVL
On to B14, for which the Kd in test [4] was determined as 8.02 nM; in test [5], 7.84 nM.

B15: 40769p1.2.F9 (scFv, V domains shown)
VH: EVQLLESGGDLVQPGGSLRLSCGASGFTFSDHYMSWVRQAPGKGLEWVADISARGSNTWYADSVKGRFTISRDNSENTLYLQMNSLRAEDTAVYYCAKNWNYNYGMDVWGQGTTVTVSS
VL: QSVLTQAPSASGTPGQRVTISCSGSSIQNNYVSWYQQLPGTAPKLLIYRNFERPSGVPDRFSASKSGTSASLAISGLQSGDEADYYCASWDDSLNWVFGGGTKLTVL
As to B15, the values for the Kd in test [4] and in test [5] were 8.85 nM and 8.27 nM, respectively.

B16: 40769p2.2.D3 IgG (antibody, V domains shown)
VH: EVQLLESGGGLIQPGGSLRLSCTASGFDFSSYGMHWVRQAPGKGLEWVGIISDSGGTTYYADSVKGRFTISRDNSKNTLYLQMNSLRAEDTALYYCASYIMDVWGQGITVTVSS
VL: QSVLTQPPSASGTPGQRVTISCSGSNSNVGVNSVYWYQQLPGTAPKLLIYGSGRRPSGVPDRFSVSKSGTSASLAISGLQSEDEADYYCAAWDGGLNAWVFGGGTKLTVL
notes: IgG
In the case of B16, the Kd in test [1] came to 41.3 nM; in test [2], 348 nM.

B17: 40769p2.2.G3 IgG (antibody, V domains shown)
VH: EVQLLESGGGLVQPGGSLRLSCTASGITFSRFNMFWVRQAPGKGLEFVASIRDDGSWTYYADSVKGQFTISRDNSKNTLYLQMNSLRAEDTAVYYCAKDYSSKDFIYHYVMDVWGQGTTVTVSS
VL: QSVLTQPPSASGTPGQRVTISCSGRNSNIGNNVVNWYQQLPGTAPKLLIYRNQERPSGVPDRFSGSKSGTSASLAISGLQSEDEADYYCASWDDSLNAWVFGRGTKLTVL
notes: IgG
For B17, the values for the Kd in test [1] and in test [2] were 50.4 nM and 205 nM, respectively.

B18: 40769p2.2.A9 IgG (antibody, V domains shown)
VH: EVQLLESGGGLVQPGGSLRLSCTASGITFSRFNMFWVRQAPGKGLEFVASIRDDGSWTYYADSVKGQFTISRDNSKNTLYLQMNSLRAEDTAVYYCAKDYNSKDFIYHYVMDVWGQGTTVTVSS
VL: QSVLTQPPSASGTPGQRVTISCSGRNSNIGNNVVNWYQQLPGTAPKLLIYRNQERPSGVPDRFSGSKSGTSASLAISGLQSEDEADYYCSTWDDSLNGWVFGGGTKLTVL
notes: IgG
With B18, the Kd in test [1] is 11.3 nM; in test [2], 259 nM.

As usually defined, the Kd is the constant that tells how readily two partners part at equilibrium.
